The values that follow come from a protein production outcome set (Wang et al. 2014).

This data set in a line: label from the status in PepcDB records.

In the case of “MTHVTLRSEFETLIDPYAPVAQVGTGFDFTEGPIWHPIDHYLLFSDMPGDVRRRWDARRGMAEVKRPSNKCNGMTYDAELNLIVCEHATSSLIRERPDGRREVLASHFGGQELNSPNDVCVHSSGAIYFSDPWYGRMPVYGVERPRQLGFQGVYRVMPGGEPKLVVDRNLFDQPNGLCFSPDERLLYVNDTVQALIRVFDVNADGTLSNARVFASSIKSELEPGLPDGMKCDQHGNVWVTAPGGVWVYSPRGELLGKVRVPELVANLAWGGPDFRTLYLTSTHSVYAIPTRVGPRHEPYMSGRRGGAGASAGPAAAAPILTDGEMRLDPQRCAMIIQDLQNDVIMDGGAFDGSGAPAHAKQQHVVENVRRLAEAARARGVAIIHVWFVVEPGAPGVTLNAPLFEGLVDSKAMVRGSWGAAPVSGLEPRPGDFVVEKMRMSAWEGTRLETILKATGRDMIINTGAWTNMSVEHTARTGADKGYFMIVPEDCCSTMNADWHSASINFAMQNVAIVTRADAVIRALGLEHHHHHH”, the protein production entry was “failed”.
The result for “MTIAVTGSIATDHLMRFPGRFSEQLLPEHLHKVSLSFLVDDLVMHRGGVAGNMAFAIGVLGGEVALVGAAGADFADYRDWLKARGVNCDHVLISETAHTARFTCTTDVDMAQIASFYPGAMSEARNIKLADVVSAIGKPELVIIGANDPEAMFLHTEECRKLGLAFAADPSQQLARLSGEEIRRLVNGAAYLFTNDYEWDLLLSKTGWSEADVMAQIDLRVTTLGPKGVDLVEPDGTTIHVGVVPETSQTDPTGVGDAFRAGFLTGRSAGLGLERSAQLGSLVAVLVLESTGTQEWQWDYEAAASRLAGAYGEHAAAEIVAVLA” reads “not failed”; that for “MTIIKYIKFVVIIVIVTIVFSCSKNEAGNSEYDPSLPISLTDFFPIQGGMATRMVIEGANFGTDLSQIKVFFNQKEASILNVKNSIIYLLVPKLPGNDCIVTVKVGNQEARFTRNFQYIENYSVTTIAGQPGTNLFVEGTLAAAQFGPVQHLAIDDENNLFITERNGSDGKGTCSVLNEESGTVTFLFKASDNLNVPTVNAQTQNVYIPLDGGYTFYELNPVNQWIAKSRLVLHPSKEQQEAGMDDFEINWKHSLAFSRYDNMIYTRSYGGDLIKVDPETRVGQKIGNFFPNTDSFIVAHPTQPEILYIAYAAKHVIYTYNIETGEHKLFAGAFGQSGWNDGIATDAEFNSPRQMSLDMEGNIYIADSGNHCIRMIDKNGIVTTPIGQPGEAGYADGSPDMALLNDPRGVAVNSEGDVYIADLGNRCIRKLTLQ”, “failed”.
Then “MTIKQTDNINDDDLVYSNATDLPVGVKKSPKMSPTARVGLLVFGVIAAVGWGAIAFSRGETINSVWLVLAAVGSYIIAFSFYARLIEYKVVKPKDQRATPAEYVNDGKDYVPTDRRVLFGHHFAAIAGAGPLVGPVMAAQMGYLPGTLWIILGVIFAGAVQDYLVLWVSTRRRGRSLGQMVRDEMGTVGGAAGILATISIMIIIIAVLALIVVNALADSPWGVFSITMTIPIALFMGVYLRYLRPGRVTEVSIIGVALLLLAIVAGGWVADTSWGVEWFTWSKTTLALALIGYGIMAAILPVWLLLAPRDYLSTFMKIGVIGLLAVGILFARPEVQMPSVTSFALEGNGPVFSGSLFPFLFITIACGALSGFHALISSGTTPKLVEKESQMRMLGYGGMLMESFVAMMALITAVILDRHLYFSMNAPLALTGGDPATAAEWVNSIGLTGADITPEQLSEAAESVGESTVISRTGGAPTLAFGMSEILSGFIGGAGMKAFWYHFAIMFEALFILTTVDAGTRVARFMMTDTLGNVPGLRRFKDPSWTVGNWISTVFVCALWGAILLMGVTDPLGGINVLFPLFGIANQLLAAIALALVLVVVVKKGLYKWAWIPAVPLAWDLIVTMTASWQKIFHSDPAIGYWAQNANFRDAKSQGLTEFGAAKSPEAIDAVIRNTMIQGILSILFAVLVLVVVGAAIAVCIKSIRARAAGTPLETTEEPDTESEFFAPTGFLASSRDKEVQAMWDERYPGGAPVSSGGH”, with “not failed”; and “MTIKRVGILGAGKVGIVLAGLALKAGYEVRISGSGSVDKIDLTISTLVPGAIASENAEVVANSDIIILAIPLSRYKNIDPTLLKGKLVIDAMNYWWETDGIREEVLDPTLTSSEQVQNYFKDSTIVKTFNHMGYHNLQEEALPKGDPKRKALFVTGDNHAAVDEVTKFVDSMGFDQVVHYKLTDGIMTEPGSPLFGASLKYQELKQIIDNFDHTDFGRKISSTLNLEHHHHHH”, with “not failed”; and “MTIKVFSPKYPTELEEFYAERIADNPLGFIQRLDLLPSISGFVQKLREHGGEFFEMREGNKLIGICGLNPINQTEAELCKFHINSAYQSQGLGQKLYESVEKYAFIKGYTKISLHVSKSQIKACNLYQKLGFVHIKEEDCVVELGEETLIFPTLFMEKIL”, with “failed”.
Consider “MTINNDPMRDAIVDTAVELAAHTSWEAVRLYDIAARLAVSLDEIRLYFREKDELIDAWFDRADSRMLKEAESAGFLDLVASERIHHLIMIWLDALAVQRKVTRQMIMSKLEFGHIHIQIPAVMRVSRTVQWVREAAQRDATFMRRALEESTLTTIYLMTFFFWMRDESENSRHTRQFLKRHLTMAAWLGQKVYGKDPEKSTVPHKQQIPLQFD”, for which the protein production entry is on record as “not failed”.
The result for “MTIQQWLFSFKGRIGRRDFWIWIGLWFAGMLALFSLAGKNLLDIQTAAFCLVCLLWPTAAVMVKRLHDRGRSGAWALLMILAWMLLAGNWVMLPGMWQWVVGRFIPTLILVMMLIDLGAFVGVQGENKFGKATQDVKFKAEP” reads “failed”.
Then “MTITILAFIIALFFAMNIGASGAAASMGIAYGAGAVRKRQAALWISGIGVFLGAMIGGGEVVKTIGSGIIPASILNVHIVVIILGSSAISLFIANIAGIPLSTSEVTVGSIVGVGVAFQAVFTDKLLVIVMYWLIIPIAAFFLAFLIGQLLKKTEAKLRWLKQQKWARLLTALVILTGFLEAFSAGMNNVANSVGPLVGAGLLSVGSGTFLGGLFVAIGAICLGSRVIETNGKKITEFSLLQGSCVSGLGASLVIGASLFGIPVPQTQITTCSIIGIGLSEKGRAIFRKSVILKLMKVWVVSPVFSLVISYSLVKIFLDFDLYSVAVVLCVFLATLGSISLMKHARQKQSDVRRNRDHVKSIVGGRGRKREPAAWRDF”, with “failed”; and “MTITTERGSQQYAYTDLPRLMGLMTGDEKHGPAATSTLDALWVLYDRVLRVAPERVDEPGRDRFLLSKGHGPMAYYAVLAAKGFLPVDWLPDFGSYDSPLGHHPDRVLVPGAEIGSGSLGHGLPIAVGTALGLRAQGLGEPRVWVLTGDAELDEGSNHEAIAYAGAAGLERLHTIVIDNSSATHALTGGIAARFEAAGWATTTVDGHDHEALHAAFTAPHEGRPLAVVARVRPKDA”, with “failed”.
The result for “MTIVVSRKFLAILARAIEGEVATDTIFTLLGLKVVVTLASLLPASVFLSVLMVLGRMYRDNEMTVFACAGVGPLRIYRSILLFAGPVCVLGAFLSLQAMPWSERLSQELISKDEKGADVRGIKAGRFNEFSQGDVVLYAEQLNTDKTMSRVFAQSRRGDETGIVIAESGHMEINDAGDHFVVLNNGRRYQGVPGRADFVLNEFQAYGVRINPPEGSQAALKREAADSLHLWMSGRPRELAELQRRLAVPLGTFTLTLLAVPIARTSPRGGVWGNLISAFLIYIIYENLQKISQGLLATGKLSVWTSYAGIYAVMLLATSVLLARNSGWRWVRDTALGRR” reads “failed”.
Take “MTKAETSIGVFYVSEYGYSDRLAQAIINGITKTGVGVDVVDLGAAVDLQELRELVGRCTGLVIGMSPAASAASIQGALSTILGSVNEKQAVGIFETGGGDDEPIDPLLSKFRNLGLTTAFPAIRIKQTPTENTYKLCEEAGTDLGQWVTRDRSIKAMKSLGLEHHHHHH”: the protein production result is “not failed”.
With “MTKAMTAHDYLPLIEKIRKRISSWTGRFLSYCGRLQLIKSVLMSITNFWSSAFRLPGNCMKEIERLCSAFLWSGPDLKTHNAKIAWSKVCLPMCEGGLGLRPLKEINTVCGLKLIWRLLASQTSLWGQWVQTYLIRRNNFWAIKASSYQGSWMWRKLLTLRDVARSFHKKEIHNGRNTSFWYDHWSSMGTLVDVLGARGCIDLGITTTTNMENVFTTRRSRKHRGDLLVRIEAEIEAAKTRHQPDIEDIDLWKPSTGYKKTFSTRETWKLIRMAEPVCEWAKGVWFPKPHQNLLSLLGWVCTIVFQQGTECKSGTAKLTLLAFSAKTLWKQEITYSSTVTTPIKFGKL”, the protein production result is listed as “failed”.
The result for “MTKHFLPRRTRKRRPEPLVKVRIDPPKLPKIRLLPRRAPRPRRPEPLVKVRIDPPRIRLPRIRRPRLTPFRERNPVVIGAVGLTFLALLTVAAFNADSLPLIGGGETYSAAFSEAGGLKPGDEVRIAGVKVGKVKDVDLDGDHVKVTFKIKGDPGFGTETGASIRVKTILGAKYLALRPKGPGQLKPGSEIPLKRTVPAYDVVQAFSDLTTTTEKVDTDQLAKALDTISTTFQDSPAEVRASIKGLSKISRTVASRDKALGELLDHANGVTGVLAEHSEDFTALVKDGGKLFKEISKRRKAIHKLLKSSAALGIELSGLVEDNDKEIGPALKGLNRVVQMLERNQSSLDRSVKLLAPYVRVFTNALGNGRWFDSYVQNLVAAPVVPRTGGAQ” reads “failed”.
Then “MTKHIPLQATSACAAVPPSAVLDSAHLGEIRGALGTIAADDRAPRRTLKARLQTLLAIAGPGLIVMVGDNDAGAFGTYTQAGQNYGTTLLWTLLLLIPVLYVNQEMVVRLGAVTGVGHARLIFARFGKFWGAFSVADLFLLNALTLVTEFIGISLALQYLGLSQFWGVIAAAVIITFAVSTGDFRRFERFALLLVAGSLLLIPVAVMVHPPLPQLAHDFFVPKMPAGAPLGEVMLLIIAIVGTTIAPWQLFFQQSYLIDKRITPRFIRYERWDLCVGIALVIIGAVAMIGFSAAAFAGRPEFGAYTDALGTAHGLEQAAGRLPAILFALALLDASIIGAAAVSLATAYAIGDVFAVAHSLHRKPSEAKGFYAVYAGLIAFAAALVVTPGMPLGLLTNAVQTLAGVLLPSATVFLLLLCNDKAVLGPWVNRRAGNLFTGAIVAVLVLLSVILTVSVLFPGVGETTILGILGGGVVGALLLSGAVALIARRGQGVRAEPPARSVVAPEEWRMPLLATLPPARLSAVSRTWLLVLRGYLVLAAGLVLYRIVELIAR”, with “failed”.
Take “MTKIIPVASGKGGVGKTSFVANVGYKLSSLGKTVILVDLDLGGSNLHTCLGVKNKGVGIGSFINKKSKSFSDLVCKTSYDKLYLIPGDALYTGTANLPFSIKKKIIESIQKDLIADFIFLDLGSGTSYNTIDFYLASYSGVIVTIPETPSILNAYSFLKNALYRLLYLGFPQKSPERDYIGNFFKDKIEGTNLGFKDLVVGIELISLSSSLKVKRMMNNFYPRVVLNRIETSEEIAMCENLINVVKNNINIPIEFIGFVPFAKSFREAINNRVPFIDFEKNSKLNKYFEFIAGNLIKSPIEGSPYIYDDIYDMIKDQSRFIRKLEHHHHHH”: the protein production result is “not failed”.
The result for “MTKIMIIGANGGIAKKLTQRLLAETDDELVLFLRRAERLAQYREQPRVTLIDGNVLDTDELATAMAPVDIVYSNVGGTDLAAQTKSILAAMARTQRQRLIFISALGAHHEVPGKFGAWNEQAIADFLPGFREAARLLSASELVYTEIRPAWLTDVAEIDYELTTGAEPFKGTEVSRASVADLVFKLMAHPENYQRVSLGVDEPGTAGDRPSWLLEHHHHHH” reads “failed”; that for “MTKQDIRVALTIVALVLGLGWAIGYGIGLMTRPASVVPENPPHDALKSPARKAPRSGAVSGDTRYPDYEELYVNDYADLLDPAAEDRLRDKLIALYGHNGVEMTVLTIDTMGTYGHGGAIEPFATGLFNNWGIGDAERNDGVLVLIVRFDRKMRIEIGAGYERAWDARMQRVIDAGFLPYFRRDEYQEGIEAGVDETIRELTGAYPGAWDMGTAQRGWSWLARAVDRIGEWVLSLLLVPLGGAALWVRRYLRNRTRPCAQCRTPMLRAGEEADDEHLDGGQRLEEYLKSVDYDVWHCPDCGHIDIHRYKSWFSGYGACPQCNYRTLSTTSTVLSAATKTREGRKRVEYDCAHCGHHDSEIRTIPKISDSNSGGSGRSSFGGGSSSGGGASGSW”, “failed”.
